{"source": "patent US20220386594A1", "about": "(IBI AG INNOVATIVE BIO INSECTICIDES, published 2022)", "key": {"[1]": {"target": "T1, Helicoverpa armigera cytochrome p450 monooxygenase (Helicoverpa armigera, UniProt Q95031 23-504)", "T1 construct": "the tag is not part of the printed entry; also called target P450 antigen", "T1 chain": "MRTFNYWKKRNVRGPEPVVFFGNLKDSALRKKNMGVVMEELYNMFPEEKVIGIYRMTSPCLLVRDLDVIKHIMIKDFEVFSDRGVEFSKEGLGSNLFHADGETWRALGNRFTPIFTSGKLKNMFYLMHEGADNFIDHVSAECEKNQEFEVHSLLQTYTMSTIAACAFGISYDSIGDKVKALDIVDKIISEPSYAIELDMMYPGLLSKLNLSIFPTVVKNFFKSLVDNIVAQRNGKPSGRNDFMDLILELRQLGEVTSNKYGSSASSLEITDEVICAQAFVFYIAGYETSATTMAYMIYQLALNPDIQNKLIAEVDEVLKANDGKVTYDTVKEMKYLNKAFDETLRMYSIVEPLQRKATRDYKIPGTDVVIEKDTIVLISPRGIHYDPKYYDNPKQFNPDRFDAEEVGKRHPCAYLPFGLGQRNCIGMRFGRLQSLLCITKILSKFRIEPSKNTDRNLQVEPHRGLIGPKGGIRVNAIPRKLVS", "test": "ELISA, plate coated with 10 ug/ml target protein, 2 ug/ml nanobody, anti-VHH-HRP, A450"}, "[2]": {"target": "T2, Helicoverpa armigera chitin deacetylase (Helicoverpa armigera)", "T2 construct": "the tag is not part of the printed entry; also called CDA; target CDA antigen", "T2 chain": "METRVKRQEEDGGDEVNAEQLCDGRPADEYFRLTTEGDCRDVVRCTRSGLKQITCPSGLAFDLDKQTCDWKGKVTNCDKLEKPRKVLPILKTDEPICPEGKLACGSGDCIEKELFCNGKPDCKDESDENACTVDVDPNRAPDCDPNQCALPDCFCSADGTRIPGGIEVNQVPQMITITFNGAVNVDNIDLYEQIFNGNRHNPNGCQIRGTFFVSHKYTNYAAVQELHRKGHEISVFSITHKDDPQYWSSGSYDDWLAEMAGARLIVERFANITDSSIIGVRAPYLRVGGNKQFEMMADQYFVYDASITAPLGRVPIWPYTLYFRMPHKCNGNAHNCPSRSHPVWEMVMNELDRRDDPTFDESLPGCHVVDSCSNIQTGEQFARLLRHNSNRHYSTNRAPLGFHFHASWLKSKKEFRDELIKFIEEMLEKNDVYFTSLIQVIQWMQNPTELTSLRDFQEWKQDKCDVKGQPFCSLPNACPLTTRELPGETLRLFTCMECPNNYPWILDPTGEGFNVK", "test": "ELISA, plate coated with 10 ug/ml target protein, 2 ug/ml nanobody, anti-VHH-HRP, A450"}, "[3]": {"target": "T3, Helicoverpa armigera V-ATPase subunit c (Helicoverpa armigera)", "T3 construct": "also called V-ATPases Subunit C; ATPase V subunit c", "T3 chain": "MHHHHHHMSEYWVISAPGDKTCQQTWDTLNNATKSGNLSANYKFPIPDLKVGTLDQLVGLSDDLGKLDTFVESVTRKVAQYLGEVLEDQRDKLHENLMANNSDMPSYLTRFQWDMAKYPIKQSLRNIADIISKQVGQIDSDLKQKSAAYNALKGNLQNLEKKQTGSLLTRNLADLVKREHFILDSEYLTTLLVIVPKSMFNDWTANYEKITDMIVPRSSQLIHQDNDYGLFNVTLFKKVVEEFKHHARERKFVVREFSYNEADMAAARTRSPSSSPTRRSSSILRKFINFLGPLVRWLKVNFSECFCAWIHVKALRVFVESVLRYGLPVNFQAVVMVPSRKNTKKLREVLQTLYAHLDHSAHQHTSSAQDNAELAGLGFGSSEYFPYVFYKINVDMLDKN", "test": "ELISA, plate coated with the target antigen"}}, "data": [{"binder": "P45003A (VHH, Llama nanobody, His-tagged, expressed in E. coli SHuffle T7; also called anti-P450 nanobody P45003A) VHH: QVQLQESGGGLVQAGDSLRLSCVASKRSFSSHAMGWFRQAPGKAREFVATISWNSGSTFYSDSSRGRFTISRDNGKNTLYLQMNSLKPEDTAVYYCAAASGRGITASDFRYDAWGQGTQVTVSS", "values": [{"measurement": "binding result", "setting": "[1]", "value": "binds"}]}, {"binder": "CDA01A (VHH, Llama nanobody, His-tagged, expressed in E. coli SHuffle T7; also called CDA1a; anti-CDA nanobody CDA01A) VHH: QVQLQESGGGLVQAGGSLRLSCAASGRTFNTYAMGWFRQAPGKEREFVAAMNRDGSTVLYADSVKGRFAISKDNAKNTGYLQMNSLKPEDTAIYYCAANARYSDYTDGQSFVSWGQGTQVTVSS", "values": [{"measurement": "binding result", "setting": "[2]", "value": "binds"}]}, {"binder": "CDA05 (VHH, Llama nanobody, His-tagged, expressed in E. coli SHuffle T7; also called CDA5; anti-CDA nanobody CDA05) VHH: QVQLQESGGGLVQPGGSLRLSCTASGRTVSNYGMAWFRQVAGKERAFVAAINNRGDSKYYAESVKGRFTIARDNAKNTVYLQMNVLKPEDTAVYYCAADRRSLVRYEYNYWGQGTQVTVSS", "values": [{"measurement": "binding result", "setting": "[2]", "value": "binds"}]}, {"binder": "P45001A (VHH, Llama nanobody, His-tagged, expressed in E. coli SHuffle T7; also called anti-P450 nanobody P45001A) VHH: QVQLQESGGGLVQTGGSLRLSCAASGRTSRSYAMGWFRQAPGKERELVADIAWSDGRIYYSDSVKGRFTISRDNAKNTVYLEIDSLKPGDTAVYYCASRARGTVLYNYWGQGTQVTVSS", "values": [{"measurement": "binding result", "setting": "[1]", "value": "binds"}]}, {"binder": "CDA07A (VHH, Llama nanobody, His-tagged, expressed in E. coli SHuffle T7; also called CDA7a; CDA7A) VHH: QVQLQESGGGLVQAGGSLRLSCVASGRTFGNYGLAWFRQPPGKEREFVAAINNRGGNTYYADSVKGRFTISRDNAANTLYLQMSSLKPEDTAVYYCAADRTSLHSYRYTYWGQGTQVTVSS", "values": [{"measurement": "binding result", "setting": "[2]", "value": "binds"}]}, {"binder": "CDA10 (VHH, Llama nanobody, His-tagged, expressed in E. coli SHuffle T7; also called anti-CDA nanobody CDA10) VHH: QVQLQESGGGLVQTGESLRLSCAASGRTLSSYTMGWFRQAPGKEREIVAASSWSGGRTYYADSVKGRFTMSRNNAENTVYLQMNSLNPEDTAVYYCAADSSRAPRTYNYWGQGTQVTVSS", "values": [{"measurement": "binding result", "setting": "[2]", "value": "binds"}]}, {"binder": "VAT0101A (VHH, Llama nanobody, His-tagged, expressed in E. coli SHuffle T7; also called anti-VAT nanobody VAT0101A) VHH: QVQLQESGGGLVQAGGSLRLSCAASGSTFSGYIMSWFRQPPGKERELVAAITYVGSTYVEDSVKGRFTISRDNAKNTVSLQMNSLKPEDTAVYYCRAREGEQLDFWGQGTQVTVSS", "values": [{"measurement": "binding result", "setting": "[3]", "value": "binds"}]}, {"binder": "P45004 (VHH, Llama nanobody, His-tagged, expressed in E. coli SHuffle T7; also called anti-P450 nanobody P45004) VHH: QVQLQESGGGLVQAGGSLRLSCAASGRTFSRINMGWFRQAPGKEREFVAVISWNSIADYADSVKARFTISRDNAKNTVYLQMNSLKPEDTAVYYCAASAPFRSKNPTLYLYWGRGTQVTVSS", "values": [{"measurement": "binding result", "setting": "[1]", "value": "binds"}]}]}
